Source: the supplement of paper PMC9170038

System: MS2 coat protein
Test: apparent KD of MS2 coat protein; higher = weaker reporter binding
Details: Eterna round: R107
Method in brief: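 The designed RNA switches were transcribed on-chip from Illumina sequencing clusters. In 100 mM Tris-HCl pH 7.5, 80 mM KCl and 4 mM MgCl2, without or with constant ligand, they were titrated with SNAP-549-labelled MS2 coat protein from 0.7 or 1.5 nM to 3 µM in twofold steps. Apparent KD is the per-design median of normalised cluster binding-curve fits.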

[1] = input ligand: theophylline 20 uM
[2] = input ligand: theophylline 2 mM
[3] = input ligand: tryptophan 2.4 mM

Sequence | apparent KD of MS2 coat protein (input ligand: arginine 13.2 mM) [nM] | apparent KD of MS2 coat protein (input ligand: none) [nM] | apparent KD of MS2 coat protein [1] [nM] | apparent KD of MS2 coat protein [2] [nM] | apparent KD of MS2 coat protein [3] [nM]
UGCGUACAUGAGGAUCACCCAUGUACUGAAGGAGCGGGAGGCAUCUCAGGUAGGUCGCAGACAUGAGGAUCACCCAUGUAGUGGU [Exclusion Arginine A GF 18] | 16.1 | 26.9 | 44.6 | 38.3 | 26.6
GACCACAUGAGGAUCACCCAUGUCUUGGUCCGAGGACCGGUACGGCCGCCACUCGAGAGCCGUACAAAUAAACGGAGUGCCAUCA [theeternabot_sameState_MS2_Trp_A_31] | 12.5 | – | 19.6 | 15.5 | –
CCUAUGCAGUCGGCCGCCACUGAUAAAAUUAUUUUUACCUCAGAAACAUGAGGAUCACCCAUGUACAGGACCGGGACUGUAUAGG [Ex Tryptophan B 17] | 24.2 | – | 20.1 | 22.8 | –
ACGACGCAUAGUGAUACCAGUAGAACAUGAGGAUCACCCAUGUCUGUGACGCACCACCUCUGCCCUUGGCAGCACUAUGCGUCAG [SSTheo B #8] | 22.3 | – | 30.3 | – | 23
AUACAUGAGGAUCACCCAUGUAUAGUUGAAGGAGCGACCAGAGGGUCAGGUAGGUCGCAGCGCAUGAGGUAAGCCCAUGUAUGCU [#1 Exclusion - Arginine A Attempt #16 (Inspired by Pi)] | 22.7 | 22.8 | 44 | 70 | 17.2
GGACUAACCAGAAGGAGCGGCACGCAGAAACUGCAAAAUCCUCCACACGAGGAUCACCCGUGUCAGGUAGGUCGCUGGUUAGUCG | 45.8 | 48.6 | 55 | 52.5 | 48.4
GUGUACAUGAGGAUCACCCAUGUCGAGUUACGAGGACCGGUACGGCCGCCACUCGGCGGCUCGACACGGAUAGCGGUGCGUUGCU [Exclusion - Tryptophan A] | 18.2 | 33.2 | 40.8 | 35.4 | 129
CGGACAUGAGGAUCACCCAUGUCGUCGACGCGAGGACCGGUACGGCCGCCACUCGCAUGCCAAUGAGCGCAUGCGGCCUGGGUAU [Exclusion Tryp A GF5] | 15.8 | 19.5 | 29 | 21 | –
AUUCUUUACUGAAGGAGCGUCAUUCUUACAUGAGGAUCACCCAUGUUUAUUCUUUAUGAUUGACAGGUAGGUCGCAGAUUUUUUA [#11 Same State - Arginine B] | 19.5 | 17.8 | 24.4 | 19 | 17
UAAUAAUUCCUCAUGUCACGAGUGGCAUAACGAGGACCGGUACGGCCGCCACUCGAACAUGAGGAUCACCCAUGUAGCCACUCGA [M'-T'-T-MS2-T'' - Design 4] | 56.7 | – | 286 | 474 | –
GUAGGUCUCAUGGGUGGACCUACACUGGAAGGAGCGAGCGAAAGCUCAGGUAGGUCGCCAGAAACAUGAGGAUCACCCAUGUAAU [(A)''-(M)'-(A)'-(Arg1)-(Arg2)-(M1)-(M2)_Design1] | 72.3 | 360 | 144 | 288 | 320
CCGGCCGCAUGAAGGAGCGCACAGCGCUCGCACAUGAGGAUCACCCAUGUAAAUGGGUGCGUGCAGGUAGGUCGCAUGCAGGCAA [Lesobete] | 133 | 313 | 544 | 671 | 472
UGUUAUUUCCGAAGGAGCGGGAUACAUGAGGAUCACCCAUGUACAUGAGGAUCAACAUGAACCCAGGUAGGUCGCGGAUUUUGUC [Exclusion Arginine B 3] | 34.1 | 405 | 300 | 379 | 228
GACAUGAGGAUCACCCAUGUACCGCGAGAAGGAGCGCGGAUAAACGCAGGUAGGUCGCUCGUGGGCUUGUAUUCAAUCGUAAGCU [Anlaaranan] | 48.2 | 108 | 187 | 207 | 80.7
AUCGGCAGAAAAGAUACCAGAGUAAUACACAACAUGAGGAUCACCCAUGUACGGACAAUCCUCCCUUGGCAGCUUGUAACAGUAU [theeternabot_sameState_MS2_Theo_B_32] | 37.4 | – | 63.8 | – | 48
ACAUGAGGAUCACCCAUGUACAUAAGGGAAGGAGCGCGGUGAAACGCAGGUAGGUCGCCCAUAAUAUCUAACAUUAAAUUCAUGU [LeftA3] | 16.8 | 16.6 | 27.9 | 20 | 18.8
ACGCUGAUUGAUUACAAUCAGCGAAAAGAUACCAGUGGGUAAUCCCACCCUUGGCAGCUUAAACUUGAGGAUCACCCAGGUGGUA [TheoAS 17 #MS2Right #BothOrNeither #AlternativeMS2] | 88.2 | 238 | 419 | 439 | 630
UGAUUGAACGGAAGGAGCGUGAAGAGAGAGAAACAUGAGGAUCACCCAUGUAGAGAGAGAUCACAGGUAGGUCGCCGAGAGAUUG [11.C] | 17.8 | 15 | 20.8 | 21 | 17.1
AGAUAACAUGGUUUAAUAAGUUAAACUGAUACCAGUGUAUAUAAUCACCCUUGGCAGCAGCAACAUGAGGAUCACCCAUGUAAUA [JR_SSTheophyA_Sub013] | 16.2 | – | 19.9 | – | 19.6
CUUAUACAUGAGGAUCACCCAUGUGGUGAUACCAGCCACGAUCAAGGCCCUUGGCAGCACAAAGGGAAUAAUAUGAUUACAAAAC [theeternabot_sameState_MS2_Theo_A_6] | 117 | – | 566 | – | 489
ACAUGAGGAUCACCCAUGUCACUCGUGUUCCGAGGACCGGUACGGCCGCCACUCGGUCCUCGCGAGGAUGGUCAAAGACUAUCCA [Omei Trp A SS B v2] | 37.1 | 75.2 | 66.8 | 71.4 | 48.6
UAUUUGGUGCGCGAGCGCUGGAUAAUUGAUACCAGUGAAGAAGAGCGCCCUUGGCAGCGAAUCCUAACAUGAGGAUCACCCAUGU [5.R] | 33.1 | – | 54.1 | – | 38.7
CUUCUGAAAGCAAUGGGAUCUGUUAUUGAUACCAGCAUCUGAUUUUGCCCUUGGCAGCAAGAAACAUGAGGAUCACCCAUGUGGC [theeternabot_exclusion_MS2_Theo_A_19] | 21.4 | – | 23.1 | – | 21
GGUACAUGAGGAUCACCCAUGUAUUAGUGCCGAGGACCGGUACGGCCGCCACUCGCUUCACAUGAGGAUCACCCAUGUGUCACUG [SSTA DOUBLE!!! :-D #14] | 23.6 | – | 35.9 | 36.1 | –
UAGGUGAUCUUCAACGGAAAACGUUGUGAUACCAGCCAACAAUACGGCCCUUGGCAGCACAUGAGGAUCACCCAUGUGUACACCG [Vetizaatdi] | 25.6 | – | 48.7 | – | 30.6
GGAUCAGGAUCGGCCGCCACUGAUAGUGAUCCAACGACAUGAGGAUCACCCAUGUACAUUUUAAUCAGGACCGGGAUCAAGUUCC [Tryp B Ex t7] | 40 | – | 189 | 327 | –
UCGGAGAAGUCGGCCGCCACUGAACUCUUGUUCUACAUGAGGAUCACCCAUGUUCCUUUGUUUAACAGGACCGGGACUUAUACGA [JR_SSTryptoB_Sub009] | 108 | – | 283 | 346 | –
GGAAUAACGAUUGAUACCAGCAUGUUAACAUGAGGAUCACCCAUGUUAAGGAUAACAUAAUGCCCUUGGCAGCAACGGAAACCCG [#23Same State - Theophylline B] | 16.3 | – | 19.2 | – | 17.8
GCCUGGGAUACGGCCGCCACUACAUGAGGAUCACCCAUGUAAUAUUUAUUAGAAGAGAGGGUAUGUAGGACCGGGUAAGGAAGGC [e-trypB-0] | 14.3 | 15.8 | 24.9 | 22.5 | 26
